Results published in patent publication US20210188916A1 (INDUSTRY UNIVERSITY COOPERATION FOUNDATION HANYANG …, published 2021).

Legend:
[1] = biological target: T1, ATP5C1 (endogenous, HCT116 human colon cancer cells) (human, UniProt P36542 26-298); experiment: interaction analysis by immunoblot in HCT116 xenograft tumor lysates of treated mice (FIG. 6A, bottom)
T1 construct: Endogenous protein in cell or tumor lysates
T1 sequence: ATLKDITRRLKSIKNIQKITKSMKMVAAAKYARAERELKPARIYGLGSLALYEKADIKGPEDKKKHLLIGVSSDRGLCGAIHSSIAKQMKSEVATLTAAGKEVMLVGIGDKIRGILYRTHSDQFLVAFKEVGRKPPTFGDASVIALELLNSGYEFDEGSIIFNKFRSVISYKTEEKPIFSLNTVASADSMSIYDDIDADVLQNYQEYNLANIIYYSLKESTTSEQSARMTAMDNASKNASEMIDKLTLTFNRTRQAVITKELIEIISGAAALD

[2] = biological target: T2, ATP5A1 (endogenous, HCT116 human colon cancer cells) (human, UniProt P25705 44-553); experiment: as above
T2 construct: Endogenous protein in cell or tumor lysates
T2 sequence (P25705 44-553 limits assumed): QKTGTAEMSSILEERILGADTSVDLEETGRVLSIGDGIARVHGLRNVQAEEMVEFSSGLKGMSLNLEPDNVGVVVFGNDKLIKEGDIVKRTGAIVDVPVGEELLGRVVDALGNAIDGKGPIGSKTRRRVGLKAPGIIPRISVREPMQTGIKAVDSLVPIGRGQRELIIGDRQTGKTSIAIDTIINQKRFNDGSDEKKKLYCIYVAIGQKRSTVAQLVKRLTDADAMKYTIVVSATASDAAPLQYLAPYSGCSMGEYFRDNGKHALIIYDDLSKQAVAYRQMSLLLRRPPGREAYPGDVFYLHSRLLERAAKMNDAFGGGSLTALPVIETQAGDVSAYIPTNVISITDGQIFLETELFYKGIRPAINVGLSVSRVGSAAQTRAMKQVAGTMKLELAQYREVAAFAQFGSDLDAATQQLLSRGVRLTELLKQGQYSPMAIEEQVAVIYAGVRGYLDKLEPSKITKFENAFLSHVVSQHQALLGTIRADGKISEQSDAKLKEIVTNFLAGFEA

B1: rATRAM-GRA8-M/AS (6x His-tagged ATRAM-conjugated multifunctional GRA8 peptide) (peptide)
chain: GLAGLAGLLGLEGLLGLPLGLLEGLWLGLELEGNGLAGLAGLLGLEGLLGLPLGLLEGLWLGLELEGNGGATATTTTTTRGGYRFTVQTTQN
notes: also called rATRAM-G8-M/AS; 6x His-rATRAM-GRA8-M/AS; not shown: N-terminal 6x His tag from the pRSFDuet-1 vector
binding result [1]: binds
binding result [2]: binds
